For three molecules, Kd results are on record in patent US20100330072A1 (published 2010).

The target in this test is T1, recombinant mature myostatin (human, produced in E. coli) (human, UniProt O14793 267-375).
T1 construct: mature; also called GDF-8
T1 sequence (looked up): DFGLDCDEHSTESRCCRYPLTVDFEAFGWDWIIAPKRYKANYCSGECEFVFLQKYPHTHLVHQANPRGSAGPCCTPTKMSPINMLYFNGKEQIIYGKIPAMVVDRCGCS
Description: KinExA solution equilibrium assay or BIAcore (table does not say which). (In general: A kinetic exclusion assay measures how much of one partner remains free in solution.)

Numbering of substitutions follows the chain as printed.

B1: 2x mTN8-19-7 peptibody (Fc fusion)
chain: GGGGGAQLADHGQCIRWPWMCPPEGWELEGSGSATGGSGSTASSGSGSATGLADHGQCIRWPWMCPPEGWELE
notes: Fc dimer; also called 2×mTN8-19-7
As usually defined, the Kd is the equilibrium constant for the complex coming apart. For B1, the Kd came out at 12 pM.

B2: 2x mTN8-19-21 peptibody (Fc fusion)
chain: GGGGGAQSEYQGLCTRWPWMCPPQGWKLEGSGSATGGSGSTASSGSGSATGSEYQGLCTRWPWMCPPQGWKLE
notes: Fc dimer
On to B2, for which the dissociation constant Kd turned out to be 6 pM.

B3: 2x mTN8-19-33 peptibody (Fc fusion)
chain: B2 chain with S8P, Y10S, L13H, K27G, S52P, Y54S, L57H, K71G
notes: Fc dimer; also called 2×mTN8-19-33
For the molecule B3, the dissociation constant (Kd) came to 3 pM.
